Reference: US20140223606, “COMPOSITIONS AND METHODS COMPRISING SEQUENCES HAVING MEGANUCLEASE ACTIVITY” (PIONEER HI BRED INTERNATIONAL INC, published 2014)
Positions count from the first letter of the chain named.

T1: ZM6.22v2(J7) (artificial)
T1 chain: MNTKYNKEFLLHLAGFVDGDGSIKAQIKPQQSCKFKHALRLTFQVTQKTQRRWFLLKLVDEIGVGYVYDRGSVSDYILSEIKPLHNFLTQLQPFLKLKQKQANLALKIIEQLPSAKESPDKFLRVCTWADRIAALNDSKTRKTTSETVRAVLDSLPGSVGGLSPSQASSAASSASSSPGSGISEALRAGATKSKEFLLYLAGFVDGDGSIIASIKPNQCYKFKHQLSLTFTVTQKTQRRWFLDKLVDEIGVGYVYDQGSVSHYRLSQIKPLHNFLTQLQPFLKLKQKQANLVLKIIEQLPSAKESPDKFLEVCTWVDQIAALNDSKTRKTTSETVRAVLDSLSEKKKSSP

T2: ZM6.22v2(J3) (artificial)
T2 chain: T1 chain with H12Y, Q50R, A105V, R124E, A129V, Q237R, E311R, V316A, Q318R

T3: ZM6.22v2(J4) (artificial)
T3 chain: T1 chain with L56D, A105V, R124E, A129V, R131Q, Q237R, Q318R

T4: MHP14(06) (artificial)
T4 chain: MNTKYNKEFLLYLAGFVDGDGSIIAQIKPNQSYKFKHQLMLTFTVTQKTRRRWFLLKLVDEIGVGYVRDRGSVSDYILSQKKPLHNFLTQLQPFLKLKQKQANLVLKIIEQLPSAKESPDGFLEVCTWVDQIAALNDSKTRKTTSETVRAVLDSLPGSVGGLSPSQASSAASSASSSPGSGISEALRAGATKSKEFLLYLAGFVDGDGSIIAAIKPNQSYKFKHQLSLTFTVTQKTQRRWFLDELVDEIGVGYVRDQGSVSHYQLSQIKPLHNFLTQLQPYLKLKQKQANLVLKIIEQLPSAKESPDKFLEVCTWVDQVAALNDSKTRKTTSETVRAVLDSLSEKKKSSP

T5: MHP14(L14-04) (artificial)
T5 chain: T4 chain with Q31R, R50Q, L56D, K81I, G121K, E244K, Y281F, V319I

B1: ZM6.22v2 recognition site (dsDNA)
DNA 1: ATTGCTCTCTCACATACTTTTA
DNA 2: TAAAAGTATGTGAGAGAGCAAT
B2: MHP14 recognition site (dsDNA)
DNA 1: CAAACAGATTCACGTCAGATTT
DNA 2: AAATCTGACGTGAATCTGTTTG

Tests used:
Conditions in all cases: tags: NLS, 6xHis
ZM6.22v2(J7) = target: T1, ZM6.22v2(J7); assay: cell_activity; yeast 37 C; 30 C: 0.5
Description: (§1) A 3 mL culture of selective media (MP Biomedical) was inoculated with a single colony of the yeast screening strain and grown at 30° C. overnight. On the following day, a 50 ml YPD culture (MP Biomedical) was started with 2 ml of the overnight culture and grown at 30° C. overnight. On the following day, the cells were harvested by centrifugation at 4000 rpm. The cells were resuspended in 100 ml ice cold water and centrifuged again. The cells were then washed in 1.2 M sorbitol, followed by treatment with 2 ml of 10 mM Tris pH 8.0, 1 mM EDTA, 100 mM Lithium acetate, 10 mM DTT, 0.6M sorbitol for 30 minutes at 30° C. with shaking. The cells were recovered by centrifugation, washed in 40 ml 1.2M sorbitol and finally resuspended in 250 microliters of 1.2M sorbitol. 50 microliter aliquots were transferred to test tubes on ice. Up to 5 microliters of DNA (100-500 nanograms) were added. The suspension was transferred to a 0.2 cm electroporation cuvette, on ice. Electroporation was performed with a pulse charge at 1.5 kV, 200 ohms, 25 microF (pulse time of 5 milliseconds). 1 mL YPD media (MP Biomedical) was added and the cells were allowed to recover at 30° C. for 1-2 hr. The cells were centrifuged, resuspended in 100 uL 1M sorbitol and plated on selective media lacking leucine and containing 2% galactose. The resulting yeast colonies were incubated at various temperatures ranging from 22 to 37 degrees Celsius for 7-10 days. I-CreI and meganucleases derived from it have maximal activity at or above 37 degrees Celsius. Screening was performed at a range of temperatures from 22 to 37 degrees in order to observe increases in activity at lower temperatures which are relevant to certain biological systems (eg. plant cells, plant cell cultures, etc). At that time the red/white sectoring phenotype, indicative of meganuclease activity was observed. Colonies with increased white sectoring over the parental meganuclease (indicating colonies expressing a meganuclease with increased meganuclease activity), also referred to as “hits” and sometimes completely white, were isolated for further analysis.
(§2) A total of 13 ZM6.22v2 variants with increased activity were confirmed in the yeast system (as described in Example 6). Increased activity was observed across a range of temperatures: 28 degrees Celsius, 30 degrees Celsius and 37 degrees Celsius, as shown in Table 16.

ZM6.22v2(J3) = target: T2, ZM6.22v2(J3); assay: cell_activity; yeast 37 C; 30 C: 0.5
Description: as §1, §2

ZM6.22v2(J4) = target: T3, ZM6.22v2(J4); assay: cell_activity; yeast 37 C; 30 C: 0.5
Description: as §1, §2

MHP14(06) = target: T4, MHP14(06); assay: cell_activity; yeast 37 C; 28 C: 0
Description: as §1
(§3) A total of 15 MHP14 variants with increased activity were confirmed in the yeast system (as described in Example 6). Increased activity was observed across a range of temperatures: 28 degrees Celsius, 34 degrees Celsius and 37 degrees Celsius, as shown in Table 11.

MHP14(L14-04) = target: T5, MHP14(L14-04); assay: cell_activity; yeast 37 C; 28 C: 0
Description: as §1, §3

Binder	activity (ZM6.22v2(J7)) [score 0-4]	activity (ZM6.22v2(J3)) [score 0-4]	activity (ZM6.22v2(J4)) [score 0-4]	activity (MHP14(06)) [score 0-4]	activity (MHP14(L14-04)) [score 0-4]
B1	3	3	3.5	–	–
B2	–	–	–	3.5	3
